From patent US20220008464A1

Biological target: TGFBR II (UniProt P37173)
Experiment: cell-based or functional assay

Chain of TGFBR II (P37173 23-567): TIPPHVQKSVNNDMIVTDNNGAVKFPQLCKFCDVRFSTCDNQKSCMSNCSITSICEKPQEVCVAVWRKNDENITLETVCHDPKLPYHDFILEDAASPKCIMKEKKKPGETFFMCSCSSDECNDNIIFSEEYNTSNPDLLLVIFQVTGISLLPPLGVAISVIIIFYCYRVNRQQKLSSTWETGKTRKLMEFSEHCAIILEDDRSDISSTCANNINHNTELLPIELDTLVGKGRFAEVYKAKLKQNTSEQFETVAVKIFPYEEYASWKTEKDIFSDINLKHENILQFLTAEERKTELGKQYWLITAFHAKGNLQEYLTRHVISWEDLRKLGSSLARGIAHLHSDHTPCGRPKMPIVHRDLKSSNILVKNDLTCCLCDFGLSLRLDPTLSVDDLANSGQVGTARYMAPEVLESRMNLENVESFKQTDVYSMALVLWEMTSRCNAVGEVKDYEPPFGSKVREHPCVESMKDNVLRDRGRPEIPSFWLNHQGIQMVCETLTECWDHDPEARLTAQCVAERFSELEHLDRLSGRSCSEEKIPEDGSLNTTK

Substance: TGFβ1 (from UniProt P01137 279-390) (ligand)
- decrease in release of IL-2 and IFN-γ by P4-CAR-T cells with 5 ng/ml TGFβ1: 50%
